The target of assay [1] is single-ring mutant of GroEL, SR1 (E. coli), P0A6F5.
The target in assay [2] is single-ring truncation mutant, SRΔ526 (E. coli). The assay can be described thus: protease protection (encapsulation); denatured PepQ-24F (100 nM) bound to wild-type or Δ526 GroEL-GroES-ADP bullets (200 nM) or full-length or Δ526 single-ring GroEL (300 nM) with GroES (600 nM); single turnover with ATP (2 mM), quenched after 10 s; unencapsulated PepQ digested with Proteinase K; SDS-PAGE, fluorescein scan.

Numbering of substitutions follows the chain as printed.

B1: wild type E. coli PepQ, P21165 1-443 (enzyme)
chain: MESLASLYKNHIATLQERTRDALARFKLDALLIHSGELFNVFLDDHPYPFKVNPQFKAWVPVTQVPNCWLLVDGVNKPKLWFYLPVDYWHNVEPLPTSFWTEDVEVIALPKADGIGSLLPAARGNIGYIGPVPERALQLGIEASNINPKGVIDYLHYYRSFKTEYELACMREAQKMAVNGHRAAEEAFRSGMSEFDINIAYLTATGHRDTDVPYSNIVALNEHAAVLHYTKLDHQAPEEMRSFLLDAGAEYNGYAADLTRTWSAKSDNDYAQLVKDVNDEQLALIATMKAGVSYVDYHIQFHQRIAKLLRKHQIITDMSEEAMVENDLTGPFMPHGIGHPLGLQVHDVAGFMQDDSGTHLAAPAKYPYLRCTRILQPGMVLTIEPGIYFIESLLAPWREGQFSKHFNWQKIEALKPFGGIRIEDNVVIHENNVENMTRDLKLA
With B1, the observed folding rate constant of PepQ by recovery of enzymatic activity, bound to SR1 (300 nM) and refolded with GroES (600 nM) and ATP (2 mM) in assay [1] came to 0.62 min⁻¹.

B2: PepQ-24F (enzyme)
chain: B1 chain with A24C
modifications: fluorescein (5-iodoacetamidofluorescein) on the cysteine at position 24
In turn, B2 had an early escape compared to SR1 in assay [2] of less than 10%.

The values are drawn from article PMC5497066.
